Consider 2 molecules from patent publication US20210206865A1.

This test deals with monkey BCMA-MMH (monkey BCMA with C-terminal myc-myc-hexahistidine tag) (monkey). In words: SPR Biacore, 25 C, mAb captured via anti-hFc.
Chain of monkey BCMA-MMH (monkey BCMA with C-terminal myc-myc-hexahistidine tag) (monkey) (chain, as listed by the source limits assumed): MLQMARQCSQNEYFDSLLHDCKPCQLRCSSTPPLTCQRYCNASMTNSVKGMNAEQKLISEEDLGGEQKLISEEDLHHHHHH

B1: mAb16747 (REGN4515) (antibody, V domains shown)
VH: QVQLVESGGGLVKPGGSLRLSCAASGFTFSDYYISWIRQAPGKGLEWVSYISSSGSSIKYADSVKGRFTISRDNAKNSLYLQMNSLRAEDTAVYYCAREGGNYGMDVWGQGTTVTVSS
VL: DIQMTQSPSSVSASVGDRVTITCRASQGINNWLVWYQQKPGKAPKLLIYAATSLQSGVPSRFSGSGSGTDFTLTISSLQPEDFATYYCQQANSFPPTFGQGTKLEIK
Molecule B1 came in with a 90 nM mfBCMA.mmh Bind (RU) of 1.9 RU.

B2: mAb16732 (REGN4514) (antibody, V domains shown)
VH: EVQLVESGGGLVQPGRSLRLSCAASGFTFDDYAMHWVRQAPGKGLEWVSGISWNSGNMGYADSVKGRFTISRDNAKNSLFLQMHSLRAEDTAFYYCAKVRLTAFDFWGQGTLVTVSS
VL: DIQMTQSPSSLSASVGDRVTITCRTSQSIGNYLNWFQQKPGKAPKLLIYTASSLQNGVPSRFTGSGSGTDFTLTISSLQPEDFVIYYCQQSFSTPYTFGQGTKLEIK
In turn, B2 yielded a 90 nM mfBCMA.mmh Bind (RU) of 1.1 RU.
